Measurements from patent US20260242478A1 (published 2026).
Where no end group is shown, it is not given here.

How the values were obtained:
Anti-PSMA Fab [1] = target: T1, Anti-PSMA Fab; experiment: clonal phage ELISA on captured PSMA Fab pre-incubated with PSMA antigen as competitor, anti-M13 HRP detection;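 also: crude clonal phage supernatants tested by ELISA, wells first treated with blocking buffer plus PSMA antigen, bound phage read out via HRP-linked anti-M13 antibody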
T1 construct: Biotinylated and captured on neutravidin coated plates in the phage ELISA; also called 006 PSMA Fab
Protocol: (§1) Clonal phage were harvested as crude supernatants and screened via standard ELISAs. […] Prior to the addition of clonal phage. wells were incubated with blocking buffer and PSMA antigen or blocking buffer alone. Without washing or aspirating, clonal phage supernatants were then added to the wells and incubated for a short time. Wells were then washed followed by detection of bound phage using a horse radish conjugated anti-M13 antibody.

Anti-PSMA Fab [2] = target: T1, Anti-PSMA Fab; experiment: clonal phage ELISA on biotinylated PSMA Fab captured on neutravidin plate, anti-M13 HRP detection, blocking buffer alone
Protocol: as §1

PSMA Fab [3] = target: T2, PSMA Fab (biotinylated (site not stated)); experiment: clonal phage ELISA on captured PSMA Fab; competitor: PSMA antigen at saturating concentration
T2 construct: also called Anti-PSMA Fab; 006 PSMA Fab

PSMA Fab [4] = target: T2, PSMA Fab; experiment: clonal phage ELISA on biotinylated PSMA Fab captured on neutravidin plate, anti-M13 HRP detection; no PSMA antigen
Protocol: as §1

Binder | Phage binding ELISA signal, Anti-PSMA Fab with PSMA antigen (Anti-PSMA Fab [1]) | Phage binding ELISA signal, Anti-PSMA Fab (Anti-PSMA Fab [2]) | phage binding ELISA signal (PSMA Fab [3]) | phage binding ELISA signal (PSMA Fab [4])
YDHFCVPRWMCEGL (cysteine pairing not given here; also: fused to pIII of bacteriophage, pIII and linker not given here, Peptide-180 library clone, tested as clonal phage supernatant with the peptide fused to pIII of the bacteriophage) [Phage-3500] | 0.0592 | 1.7 |  | 
DYMMCSPDWMCKGF (cysteine pairing not given here; also: fused to pIII of bacteriophage, pIII and linker not given here, Peptide-180 library clone, tested as clonal phage supernatant with the peptide fused to pIII of the bacteriophage) [Phage-3494] | 0.0722 | 1.7 |  | 
TVHYCTPSWMCTGF (cysteine pairing not given here; also: fused to pIII of bacteriophage, pIII and linker not given here, Peptide-180 library clone, tested as clonal phage supernatant with the peptide fused to pIII of the bacteriophage) [Phage-3498] | 0.0866 | 1.7 |  | 
DILRCVPEWMCTGF (cysteine pairing not given here; also: fused to pIII of bacteriophage, pIII and linker not given here, Peptide-180 library clone, tested as clonal phage supernatant with the peptide fused to pIII of the bacteriophage) [Phage-3492] | 0.0911 | 1.71 |  | 
EAPACVPVWMCNGF (cysteine pairing not given here; also: fused to pIII of bacteriophage, pIII and linker not given here, Peptide-180 library clone, tested as clonal phage supernatant with the peptide fused to pIII of the bacteriophage) [Phage-3503] | 0.0778 | 1.7 |  | 
MVPRCEPEWMCVGF [Phage-3517] |  |  | 0.0705 | 1.69
PLRYCEPAWMCFGF (cysteine pairing not given here; also: fused to pIII of bacteriophage, pIII and linker not given here, Peptide-180 library clone, tested as clonal phage supernatant with the peptide fused to pIII of the bacteriophage) [Phage-3501] | 0.0601 | 1.7 |  | 
IEIRCKPEWMCTSF [Phage-3505] |  |  | 0.0708 | 1.7
AEPVCVPDWMCFGF [Phage-3507] |  |  | 0.103 | 1.69
VDHRCVPSWMCYGL [Phage-3508] |  |  | 0.0745 | 1.69
TEQICKPAWMCTGL [Phage-3512] |  |  | 0.0536 | 1.69
EYMRCEPSWMCYGF [Phage-3509] |  |  | 0.0584 | 1.69
SVTTCIPPWMCTGF [Phage-3513] |  |  | 0.0979 | 1.69
THPLCVPTWMCSGF (cysteine pairing not given here; also: fused to pIII of bacteriophage, pIII and linker not given here, Peptide-180 library clone, tested as clonal phage supernatant with the peptide fused to pIII of the bacteriophage) [Phage-3499] | 0.0862 | 1.7 |  | 
ADIYCKPVWMCTGF [Phage-3510] |  |  | 0.0909 | 1.69
LEMVCKPEWMCLGL (cysteine pairing not given here; also: fused to pIII of bacteriophage, pIII and linker not given here, Peptide-180 library clone, tested as clonal phage supernatant with the peptide fused to pIII of the bacteriophage) [Phage-3491] | 0.0996 | 1.71 |  | 
PELACIPEWMCIGF [Phage-3515] |  |  | 0.0803 | 1.69
VDRICKPDWMCAGF (cysteine pairing not given here; also: fused to pIII of bacteriophage, pIII and linker not given here, Peptide-180 library clone, tested as clonal phage supernatant with the peptide fused to pIII of the bacteriophage) [Phage-3497] | 0.091 | 1.7 |  | 
YPTWCVPTWMCTGM (cysteine pairing not given here; also: fused to pIII of bacteriophage, pIII and linker not given here, Peptide-180 library clone, tested as clonal phage supernatant with the peptide fused to pIII of the bacteriophage) [Phage-3493] | 0.0716 | 1.71 |  | 
SMAWCVPNWMCTGF (cysteine pairing not given here; also: fused to pIII of bacteriophage, pIII and linker not given here, Peptide-180 library clone, tested as clonal phage supernatant with the peptide fused to pIII of the bacteriophage) [Phage-3495] | 0.0897 | 1.7 |  | 
SVAYCVPTWMCDGL [Phage-3516] |  |  | 0.0618 | 1.69
QDMVCRPAWMCTGF (cysteine pairing not given here; also: fused to pIII of bacteriophage, pIII and linker not given here, Peptide-180 library clone, tested as clonal phage supernatant with the peptide fused to pIII of the bacteriophage) [Phage-3496] | 0.0848 | 1.7 |  | 
LTQMCKPLWMCAGF [Phage-3506] |  |  | 0.0786 | 1.69
VVKHCVPTWMCAGF [Phage-3514] |  |  | 0.0813 | 1.69
VGHMCKPVWMCAGL [Phage-3511] |  |  | 0.101 | 1.69
WLYSCIPQWMCTGF (cysteine pairing not given here; also: fused to pIII of bacteriophage, pIII and linker not given here, Peptide-180 library clone, tested as clonal phage supernatant with the peptide fused to pIII of the bacteriophage) [Phage-3502] | 0.127 | 1.7 |  | 
NIIHCVPPWMCDGF [Phage-3504] |  |  | 0.0795 | 1.7
